Legend:
HUVECs = assay: Trans-endothelial electrical resistance (TEER); format: cell-based, human; conditions: 4 μg/well, 250 nM S1P, 6 hour time point
Protocol: FIG. 4. Human and Mouse ApoM-Fc-S1P enhanced endothelial Barrier Protection. Human ApoMFc-S1P (4 μg/well, 250 nM S1P), Mouse ApoMFc-S1P (4 μg/well, 250 nM S1P), or BSA-S1P (250 nM S1P; Positive Control) were analyzed using transepithelial/transendothelial electrical resistance (TEER). The results of TEER analysis of HUVECs at the 6 hour time point are shown. BSA-S1P is the well-established activator of the S1PR1 and it was tested whether Human ApoMFc-S1P, Mouse ApoMFc-S1P gave equivalent induction of receptor activation. All results are normalized to individual well baselines (baseline=1), expressed as the mean of triplicate wells, and Standard Deviation (S.D.) is expressed as gray vertical bars over the course of the data set. […]
0.1 ml of Human Umbilical Vascular Endothelial Cells (HUVECS; 200,000 cells/ml in EGM-2 culture medium, Lonza) were seeded into a 96 well electrical conductance chamber (ECIS Cultureware; Applied Biophysics, Inc) pre-coated with 1% Fibronectin resuspended in Saline. After overnight incubation at 37° C./5% CO2, the 96-well plate was placed on the ECIS reader (Applied Biophysics; Ztheta 96-well array station) and baseline resistance was established which represents the quality of Endothelial junction strength or Endothelial barrier function. […]

S1P1 receptor [1] = molecular target: T1, S1P1 receptor (Homo sapiens, UniProt P21453); assay: Nanobit split luciferase assay, beta-arrestin coupling; format: cell-based; conditions: transfected 293A cells; 1000 nM-0.3 nM S1P
T1 construct: expressed in transfected cells; host or cells: Human 293A cells, transient PEI transfection
Protocol: (§1) FIGS. 5A-5B. Nanobit analysis of Human ApoMFc-S1P, Mouse ApoMFc-S1P, or BSA-S1P (Positive Control). […] BSA-S1P is the well-established activator of the S1PR1 and it was tested whether Human ApoMFc-S1P, Mouse ApoMFc-S1P gave equivalent induction of receptor activation. Data are the means of triplicate wells with the baseline (pre-stimulation) signal subtracted from the final luciferase signal and graphs are expressed with standard deviation.
(§2) The S1P receptors are members of the G-protein coupled receptor (GPCR) superfamily. Receptor activation is characterized by immediate activation of a G-protein complex (alpha-beta-gamma) that activates multiple intracellular signaling pathways and then secondary activation of coupling to the protein beta-arrestin, which may cause receptor internalization and desensitization as well as activation of other intracellular signaling pathways. […]
(§3) There are two general forms of this assay. […] Upon activation of the GPCR, the G-Protein alpha-beta-gamma complex […] and Luciferase activity may be detected by measuring emitted light in the presence of luciferase substrate (luciferin). […] It is notable that G-Protein assay results in decreased relative fluorescence with increased receptor activation, while the Beta-arrestin coupling assay results in increased relative fluorescence with increased receptor activation. […]
Target sequence in this assay (P21453 whole entry): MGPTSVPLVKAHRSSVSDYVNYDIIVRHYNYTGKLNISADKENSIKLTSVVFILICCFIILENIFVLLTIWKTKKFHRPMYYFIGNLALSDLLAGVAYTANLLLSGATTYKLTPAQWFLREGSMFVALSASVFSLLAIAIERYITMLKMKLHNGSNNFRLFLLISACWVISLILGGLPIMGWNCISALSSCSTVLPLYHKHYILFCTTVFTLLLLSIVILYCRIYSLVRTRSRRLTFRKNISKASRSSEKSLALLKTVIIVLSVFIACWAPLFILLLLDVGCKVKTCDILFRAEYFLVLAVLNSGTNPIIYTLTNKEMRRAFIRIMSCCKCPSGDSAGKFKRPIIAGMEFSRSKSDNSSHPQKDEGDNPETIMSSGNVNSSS
Target sequence in this assay (P49407 whole entry partner): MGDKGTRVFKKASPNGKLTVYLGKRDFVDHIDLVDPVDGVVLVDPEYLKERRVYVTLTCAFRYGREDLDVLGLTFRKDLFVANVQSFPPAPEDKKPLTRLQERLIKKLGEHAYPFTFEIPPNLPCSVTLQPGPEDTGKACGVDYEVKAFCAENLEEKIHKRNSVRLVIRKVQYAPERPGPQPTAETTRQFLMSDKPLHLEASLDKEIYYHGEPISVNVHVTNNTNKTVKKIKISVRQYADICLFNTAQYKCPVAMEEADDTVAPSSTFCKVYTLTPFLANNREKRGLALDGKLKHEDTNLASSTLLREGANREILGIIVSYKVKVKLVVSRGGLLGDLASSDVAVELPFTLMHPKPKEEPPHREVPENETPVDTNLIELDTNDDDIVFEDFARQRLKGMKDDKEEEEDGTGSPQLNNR

S1P1 receptor [2] = molecular target: T1, S1P1 receptor; assay: Nanobit split luciferase assay, Gi-alpha coupling; format: cell-based; conditions: transfected 293A cells; 1000 nM-0.3 nM S1P
Protocol: as §1, §2, §3
Target sequence in this assay (P21453 whole entry): as the sequence (P21453 whole entry) above

activation of beta-arrestin coupling to the S1P1 receptor (S1P1 receptor [1]): equivalently activates
activation of Gi-alpha coupling to the S1P1 receptor (S1P1 receptor [2]): equivalently activates
Substance: Human ApoMFc-S1P: Human ApoM-Human IgG1 Fc (hApoM-Fc) loaded with S1P
endothelial barrier protection (TEER) (HUVECs): enhance endothelial Barrier Protection

Reference: patent US12415847B2, “ApoM-Fc fusion proteins for treating lung diseases” (Children's Medical Center Corporation, priority 2018, dated 2025)
